We go through 1 molecule from article PMC9700037 (2022).

What is called Kd is a measure of binding affinity in units of concentration.

In this test the target is T1, biotin-MBP-NLRP1 M1184V (Avi-MBP-tev-NLRP1 M1184V) (human, UniProt Q9C000 1-1473, M1184V, biotin (on the Avi tag, BirA co-expressed)).
T1 sequence: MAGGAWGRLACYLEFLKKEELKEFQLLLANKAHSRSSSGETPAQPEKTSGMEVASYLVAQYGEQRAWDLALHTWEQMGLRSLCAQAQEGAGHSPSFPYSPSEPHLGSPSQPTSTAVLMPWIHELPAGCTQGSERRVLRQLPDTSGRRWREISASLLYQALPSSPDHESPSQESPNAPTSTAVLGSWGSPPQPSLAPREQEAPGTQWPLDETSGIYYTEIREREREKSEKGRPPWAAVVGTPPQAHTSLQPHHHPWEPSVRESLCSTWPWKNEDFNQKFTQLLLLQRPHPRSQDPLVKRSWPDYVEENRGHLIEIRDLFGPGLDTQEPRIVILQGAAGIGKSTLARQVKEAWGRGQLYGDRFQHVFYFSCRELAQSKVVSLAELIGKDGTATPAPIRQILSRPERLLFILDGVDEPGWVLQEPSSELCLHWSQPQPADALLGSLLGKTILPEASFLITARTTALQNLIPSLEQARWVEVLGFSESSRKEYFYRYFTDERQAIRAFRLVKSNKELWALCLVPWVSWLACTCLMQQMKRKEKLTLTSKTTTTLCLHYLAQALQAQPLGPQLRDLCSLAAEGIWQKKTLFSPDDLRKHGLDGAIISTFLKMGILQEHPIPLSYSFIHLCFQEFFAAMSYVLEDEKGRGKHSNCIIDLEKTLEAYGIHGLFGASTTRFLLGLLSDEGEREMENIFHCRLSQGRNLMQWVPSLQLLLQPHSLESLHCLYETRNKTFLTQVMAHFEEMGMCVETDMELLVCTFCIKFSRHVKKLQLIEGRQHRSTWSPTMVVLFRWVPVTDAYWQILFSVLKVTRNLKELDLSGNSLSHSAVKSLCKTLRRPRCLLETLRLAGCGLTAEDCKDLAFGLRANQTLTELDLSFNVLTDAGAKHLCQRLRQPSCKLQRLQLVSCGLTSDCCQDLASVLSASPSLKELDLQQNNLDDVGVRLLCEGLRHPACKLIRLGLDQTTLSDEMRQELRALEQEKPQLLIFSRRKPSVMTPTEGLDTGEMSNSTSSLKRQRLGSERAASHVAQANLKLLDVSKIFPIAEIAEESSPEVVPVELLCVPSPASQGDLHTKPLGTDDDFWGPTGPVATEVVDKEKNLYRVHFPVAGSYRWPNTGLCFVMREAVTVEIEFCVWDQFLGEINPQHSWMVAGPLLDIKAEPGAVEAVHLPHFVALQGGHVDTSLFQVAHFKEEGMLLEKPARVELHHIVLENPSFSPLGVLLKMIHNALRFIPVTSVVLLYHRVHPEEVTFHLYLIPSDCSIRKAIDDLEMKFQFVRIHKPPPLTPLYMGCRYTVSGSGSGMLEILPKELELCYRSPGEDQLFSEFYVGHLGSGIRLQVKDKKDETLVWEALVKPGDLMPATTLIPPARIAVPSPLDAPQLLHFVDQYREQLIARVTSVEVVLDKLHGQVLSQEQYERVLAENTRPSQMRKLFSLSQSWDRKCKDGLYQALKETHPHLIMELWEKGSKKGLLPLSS
As to the kind of experiment: SPR; NLRP1 void (high MW) fraction.

B1: His6-tev-DPP9 (enzyme)
chain: MATTGTPTADRGDAAATDDPAARFQVQKHSWDGLRSIIHGSRKYSGLIVNKAPHDFQFVQKTDESGPHSHRLYYLGMPYGSRENSLLYSEIPKKVRKEALLLLSWKQMLDHFQATPHHGVYSREEELLRERKRLGVFGITSYDFHSESGLFLFQASNSLFHCRDGGKNGFMVSPMKPLEIKTQCSGPRMDPKICPADPAFFSFINNSDLWVANIETGEERRLTFCHQGLSNVLDDPKSAGVATFVIQEEFDRFTGYWWCPTASWEGSEGLKTLRILYEEVDESEVEVIHVPSPALEERKTDSYRYPRTGSKNPKIALKLAEFQTDSQGKIVSTQEKELVQPFSSLFPKVEYIARAGWTRDGKYAWAMFLDRPQQWLQLVLLPPALFIPSTENEEQRLASARAVPRNVQPYVVYEEVTNVWINVHDIFYPFPQSEGEDELCFLRANECKTGFCHLYKVTAVLKSQGYDWSEPFSPGEDEFKCPIKEEIALTSGEWEVLARHGSKIWVNEETKLVYFQGTKDTPLEHHLYVVSYEAAGEIVRLTTPGFSHSCSMSQNFDMFVSHYSSVSTPPCVHVYKLSGPDDDPLHKQPRFWASMMEAASCPPDYVPPEIFHFHTRSDVRLYGMIYKPHALQPGKKHPTVLFVYGGPQVQLVNNSFKGIKYLRLNTLASLGYAVVVIDGRGSCQRGLRFEGALKNQMGQVEIEDQVEGLQFVAEKYGFIDLSRVAIHGWSYGGFLSLMGLIHKPQVFKVAIAGAPVTVWMAYDTGYTERYMDVPENNQHGYEAGSVALHVEKLPNEPNRLLILHGFLDENVHFFHTNFLVSQLIRAGKPYQLQIYPNERHSIRCPESGEHYEVTLLHFLQEYL
B1: the Kd worked out at 113 nM.
